{"source": "the DeepSol protein solubility set"}
{"assay": "soluble on expression in E. coli; label from the status in PepcDB or PDB records"}
{"sequence": "GARIKTLSVSRPIIYGNTAKKMGSVKPPNAPAEHTHLWTIFVRGPQNEDISYFIKKVVFKLHDTYPNPVRSIEAPPFELTETGWGEFDINIKVYFVEEANEKVLNFYHRLRLHPYANPVPNSDNGNEQNTTDHNSKDAEVSSVYFDEIVFNEPNEEFFKILMSR", "soluble on expression in E. coli": "soluble"}
{"sequence": "MGSDKIHHHHHHMSEAMQLTLPKSGSIEAYMQSAYSIPMLTAEKEHDLATRLYNENDLQAAQELIMSHLRFVIHVAKGYSGYGLPHADLVQEGNVGLMKAVKRFNPEVGVRLVSFAVHWIKAEIHEFVLKNWRIVKVATTKAQRKLFFNLRKNKKRLGWFSTEEVNTVAENLGVTTKDVMEMESRMSSHDQAFELSKDDDDNLGSSSFSPAQYLQDKQSDLAVEVENDNWDNHANKRLSTALVTLDERSQDIIKTRWLTEDKTTLQELANKYQISAERVRQLEKNALSKLKNTMVFD", "soluble on expression in E. coli": "not soluble"}
{"sequence": "MRELRIESVHTNPYTLTLRMNGVTLNDKDDRQLLGWGNLLVNLEWSSIIDQTWTFEAIRIDKLMIQEERFVSGETRFSRLAAESSGPEAGKEKAEKEESAEMPALRIRDFKLENGILRFADNLKDVTAADDAEPKQVSLALQNIGLSVKDFTLQNDASFPLRLNGQLTKGGKLAFDGTFQLLPSPALEGNAEINELAFKQAAPYLQQFMNVQLENGTLTLNGQMSTNAQQPFAFKGSASINTLNIKEASNDETLLGWDSLQTGQFDLNIASKEIETAPIVVKGLSARVVINQDKTTNFGQLVVDTPADTKGDTNKSEETQPFGITIEGVELSDGDVQFADKSLPLPFSTSIHTLSGEVSTLSSDSSEPARVKFEGEVAEYGLAQVNGTVHAWHPTRQTTINVRFRNLQIPEYSPYTVNFAGRKIADGTMDLDLDYTVNEEKLDGQNNLVLHDLKLGEKMESSDAMDLPLDLAIALLQDSDGVIDLNLPVSGDVGNPQFDFGKVIQQAVGDAIKSVVTAPFSFLANLVGADSEEMGKVEFPEGRTHLLPPQRERIAKLREALNKRPALALELAGPFNQAFDAPALKEDKAMKVLQQRLAEEGSEVEEPSLTSESSQDAMEAIFSSHYPDTELEALKDRFTEKPSEASNEEKFDALAYRNHLAEKVIAAQSITNEELKAIANARAETVRDALVNNSESGISADRVRIREPQEVDSVEGERIAMELAVTTDLEHHHHHH", "soluble on expression in E. coli": "not soluble"}
{"sequence": "MSLRRFKFQYKETIVTILTENEEFYKTAVKAILEARSEIEDYILHNPDFFTSYEPIECSGGEIINRMCNAAKIAGVGPMAAVAGTIAAYAVEKMIDAGAKLAVVDNGGDIVIHSDRELLVGIYPSKLAFKVPPVDYLAICTSSGKIGHSVSFGKADAATVVARDASVADALATALGNLIGDFGKKELEKTVSEFYGKYSDFVEGILVVKDELVALAGNLPSLAFAESKEDLITKGEGHHHHHH", "soluble on expression in E. coli": "soluble"}
{"sequence": "MSLELKVHETILEVNLGAMVANLNHYRSMLKPETKMVCMVKASAYGAGSYEIAKTLQEHHADYLAVAVADEGSDLRKAGITASIIIMDPELTAFKTMFDYKLEPEVYNFHLLDALIKAAEKEGITNFPIHVKLDTGMHRLGFEEKDIPQLIRRLKNQNALIPRSVFSHFVGSDSAQFDAFTRQQIERYEKMSKELQDAFPHKILRHICNTAGIERFPGAQFDMVRLGIGLYGISPIDNSIINNVSTLKTTILQIRDVAEEDTVGYSRKGHLIRPSRIAAIPIGYADGLNRHLGCGHGYCLVNGKKAPYVGNICMDVCMIDVTDIDCREGDQAIIFGDELPITALSDALETIPYEVLTGISTRVKRVYYQDEGHHHHHH", "soluble on expression in E. coli": "soluble"}
{"sequence": "MKFGPASPKDAIGGVTVHTLRQGPLVLKKGTTIGPAEVEALERAGIKDVVVVRMEEGDVSEDVAAASIALAVGGEGIHVERAFTGRANLFAARPGVLVIDRAAVDRINNIDEAITFATLTAYKPVVEGEMVGTVKIIPFGVEGALRDAAVKAAGRDVLKIAPYAIKRVGVVSTLLPGLSSKVIDKTLRVTAERLAPSGAGIIAERRVQHDEHALSAAIKELLALGAELVIVFGASAIADRRDVIPAAVTGIGGEIEHFGMPVDPGNLLLIARAEGVPVLGAPGCARSPVENGFDWVLMRLLAGIKVTRAELMGMGVGGLLMEIVTRPQPRARPEIEGNSQVAAIVLAAGRSTRMGGPNKLLAELDGKKLVRIATEQALASKASEVIVVTGHQTELVEQALQGLKVKFARNPDFAGGIASSVKAGIAAVPEACDGAVVCLGDMPLIDAGLIDRLIDSFAPDRGNLIVVPVSEGRRGNPVLWSRRFFRELMTLDGDVGARHLIAKHTEAVAEVPVDGEGAFLDIDTPQALEAARRGLEHHHHHH", "soluble on expression in E. coli": "not soluble"}
{"sequence": "MKRYVFMLSDGTGITAETLGNSLITQFENIQFEKITIPYIDSTHRAESVVLRINQCFSEQGTKPLVFMTLVDPEIRQAIKKAHACVFDLFSIFIGPLENELEEKSSYTVGRTHGVANVKSYSHRIEAIDFALSHDDGIKTRGYDKADIILIGVSRCGKTPSCLYMALQYGILAANYPFTEEDLVGFRLPEVLRPYKQKLFGLTIDAQRLQQIRSERRPNSKYASAEQCRLEVTEVEAMYQRENIPYINSTKYSIEEISTKVLAIAGLQRKILEHHHHHH", "soluble on expression in E. coli": "not soluble"}
{"sequence": "MGHHHHHHSHKVYWGVAWDRSDVAVKIYLSFTSDFRKSIRKYIVGDPRFEDIPAGNIRRLIYEWARKEYRNLRRMRESGVRVPRPVAVEANIIVMEFLGEKGYRAPTLAEAVEELDRGEAEAIAAEVLRQAEAIVCRARLVHADLSEYNILVWRGEPWIIDVSQAVPHSHPNAEEFLERDVENLHRFLTGKMGFEFDFDAYLSRLKS", "soluble on expression in E. coli": "not soluble"}
{"sequence": "MQVNEEGFAIDDKEYAMKTELKFASKHSSRLKIERNVMESYSKCDAQCKEHFSELIDFGQSPVWKWIVMTIVGPSLEELKMKYKPSDIPPSTILQCGLQTMKAIHDFHQIGFLHRDIKPANYCIGYGSKSETIYVLDFGLARKYRLPNGQVRPPRPKTKMIGTPRYCSRASHRCEELGRRDDYESWFFMFIDLVDTTLIDWKGLTRPDAYAKKQELFTKLKTYEKHPMFKVISIYLDNLVYDSEVKFGVLREAITDYARGCKLTLKEPLVWFNQSTCPSPSTAPGTGASRMATNIDLKSIASDRNEENSLDRSKTGTLSFNNSKNKKPSRY", "soluble on expression in E. coli": "not soluble"}
{"sequence": "MGSDKIHHHHHHMRQLSINRLKEGDILGRTIYANDGRVLLGKGMALTKSYIDRLKTLGINILYIDDEVSKDIIVEDIISEEHRREAMASLDNAVQAVKVGKDFDGFNVKRNIDNIIQDILFQKDIFIGLTDMRTYDNQIFAHSVNVCVLSIVLGKALGLDRENLEGLAIGALFHDIGTVKLPKKLLSKREPFTPKEAALYQTHTNHGFDILRTKRELNLLSAHIAFQHHERLNGNGYPRKLEGDAIHQWAQIVGIANFYDNLVNDGPGHTRIPPYEACEILMGSAEKFFPKDLVITFLKHIAAYPTGCTVKLSTGETGIVVEQNKSLPMRPIIRVLVADQTLSRVQAKEYNLVEERTLFIESILE", "soluble on expression in E. coli": "not soluble"}
{"sequence": "MSLRWEGALSAGQRKASNAIVVNLKAKTDMLLWAVAGSGKTEMMFEGMDWALRQGFRICVASPRVDVCLELLPRLKEAFPSIDIVCLYGDSKDNYQGEQFVIATTHQLIRFYEAFQVIFIDEVDAFPYAKDPFLEYAVMKARTKEGSTIIITATPEKKWQEECVRGKRNFVKIPGRYHRKKLPVPRTCWIGPWKKNLAKGKITPKLIQWMNDVKKKDQPALIFFPEIDAMNKFANALENKGYASEGHHHHHH", "soluble on expression in E. coli": "not soluble"}
{"sequence": "MAHHHHHHMQTPNSECVGPESPKAGIASSCQGCPNASICASMPKGPDPDIELIRQRLSGVKRTVMVISGKGGVGKSTLTKELAFALGQMGLNVALVDLDICGPSLPRLMGVRGEDAHQSAAGIEPVLVDETVSMISMHYLLGDKNEAVLFRGPRKNGVIKMFLKDVIWGDVDIMLIDTPPGTSDEHITVASILQQCGGVTGAILITTPQLVAEADVKREVKFSHKAKLHLLGIVENMSGFVCPNCKESSVIFPRANSQGAGKRLSDEFGVPFWGEVPLDPVLMKACEEGVSLTDIVDGKSPTIEILQSVAAKLVASLEIE", "soluble on expression in E. coli": "soluble"}
{"sequence": "MAAAAAAKIAPSMLSSDFANLAAEADRMVRLGADWLHMDIMDGHFVPNLTIGAPVIQSLRKHTKAYLDCHLMVTNPSDYVEPLAKAGASGFTFHIEVSRDNWQELIQSIKAKGMRPGVSLRPGTPVEEVFPLVEAENPVELVLVMTVEPGFGGQKFMPEMMEKVRALRKKYPSLDIEVDGGLGPSTIDVAASAGANCIVAGSSIFGAAEPGEVISALRKSVEGSQNKS", "soluble on expression in E. coli": "soluble"}
{"sequence": "PHIDIKCFPRELDEQQKAALAADITDVIIRHLNSKDSSISIALQQIQPESWQAIWDAEIAPQMEALIKKPGYSMNA", "soluble on expression in E. coli": "soluble"}
{"sequence": "MSLNQIDRLLTIMQRLRDPENGCPWDKEQTFATIAPYTLEETYEVLDAIAREDFDDLRGELGDLLFQVVFYAQMAQEEGRFDFNDICAAISDKLERRHPHVFADSSAENSSEVLARWEQIKTEERAQKAQHSALDDIPRSLPALMRAQKIQKRCANVGFDWTTLGPVVDKVYEEIDEVMYEARQAVVDQAKLEEEMGDLLFATVNLARHLGTKAEIALQKANEKFERRFREVERIVAARGLEMTGVDLETMEEVWQQVKRQEIDLEGGSHHHHHH", "soluble on expression in E. coli": "soluble"}
{"sequence": "MDNDRDTVEFWSSLFQSFADSEPKDNPYPVVRSPIMTMSTPMAIDEPVEPWKVLEYGGKEVRPMAIDEPAEPWKALEYGGKDVRPMAIDVPAEPWKVGGKEAQPANAAAEAGYKNVNTDQEKSTQKATEKVIM", "soluble on expression in E. coli": "soluble"}
{"sequence": "MRCKGFLFDLDGTLVDSLPAVERAWSNWARRHGLAPEEVLAFIHGKQAITSLRHFMAGKSEADIAAEFTRLEQIEATETEGITALPGAIALLNHLNKAGIPWAIVTSGSMPVARARHKIAGLPAPEVFVTAERVKRGKPEPDAYLLGAQLLGLAPQECVVVEDAPAGVLSGLAAGCHVIAVNAPADTPRLNEVDLVLHSLEQITVTKQPNGDVIIQ", "soluble on expression in E. coli": "not soluble"}
{"sequence": "MSLAESPLEIHVIADSTGETAVRLARAARSQFEGVHWHIVRHPMIGTVPEMVSALEAVSEAHEAGQWVCVVHTLVLPDMRRMVSDACEEMGIRELDLMGPMLEAMEEASGLDADAVPRRPVGVEADYFTRISAMEFAVRNDDGAIPDRLTEADICLVGVSRSGKTPLSIYLGYLGYKTVNVPLVPGIAPPTELAAVDRWRIVGLTIDAQRLLEIRGRRVRGLGGFGNEDGYADLAAIYEELDEVGKIQRRLGCPIIDTTGLALEESATKVIDVVDQRAKTAGTRLRKPAGSYRMRPEGHHHHHH", "soluble on expression in E. coli": "soluble"}
{"sequence": "MGHHHHHHSHMSCTVYAKTQQAKFLTWQFDGEYRGDDYTATLTLGNPDLIGESVIMVAHFLQSLTHRLVLGGELVYHRRPGEEGAILTLAGKYSAVHWVATLNVGSGGAHASYYHRANEQVQVGVEFEANTRLQDTTFSFGYHLTLPQANMVFRGLVDSNWCVGAVLEKKMPPLPVTLALGAFLNHWRNRFHCGFSITVG", "soluble on expression in E. coli": "not soluble"}
{"sequence": "MATTEQLANTTQKEPVIDLDQDSNMEIAHKIQNQTKRLPISEPANKNKNVTSKQNKETNRKTFEKSKRMATSTIQDRVLRTQKTRKDKESTTEKVNAILKKSAKQIKVREEEEGDDDLEDELTLYPSKRKMMVGSKNRKRTIKPNRDTIAEEQETDGEHGVKQRAFDPKQRHRQCPECLLLFSTPDKLKRHMKSHGDVPDVYCSLCNTPIKFKYNLRVHLEKCYDKMKLSLHDSMLSKVYPDFVRKLQEAAKNPVLPMPTLEGMPYEFTLKGVVGFDTSLDITKDLMLAKYEQKKQRELAGIDSDDSDELDYFDDFPDE", "soluble on expression in E. coli": "not soluble"}
{"sequence": "MTRAEVGLVWAQSTSGVIGRGGDIPWSVPEDLTRFKEVTMGHTVIMGRRTWESLPAKVRPLPGRRNVVVSRRPDFVAEGARVAGSLEAALAYAGSDPAPWVIGGAQIYLLALPHATRCEVTEIEIDLRRDDDDALAPALDDSWVGETGEWLASRSGLRYRFHSYRRD", "soluble on expression in E. coli": "soluble"}
